Measured values taken from patent US20240115745A1 (3B PHARMACEUTICALS, published 2024).
*1 amine or outer side, *2 acyl side, *3 side chain or, on linkers, in order; H or OH if unused. Bridges are numbered along the chain shown (N, C = ends). Primed or numbered codes have the meaning given here. [ ]: non-standard residue; d: D form. The star is where a group is joined. mli = maleimide cyclization element: 3,4-maleimide inserted symmetrically, forming a vinyl thioether with each Cys sulfur; mli(Me)″ = N-methyl maleimide cyclization element, vinyl thioethers with both Cys, CN1C(=O)C([*:1])=C([*:2])C1=O; mli(DOTA-Eda) = 3,4-N-(DOTA-aminoethyl)-maleimide bridging two Cys S atoms as vinyl thioethers; Ttds = 1,13-diamino-4,7,10-trioxatridecan-succinamic acid, NCCCOCCOCCOCCCNC(=O)CCC(=O)*; mli(DOTA-Ttd) = 3,4-N-(DOTA-Ttd)-maleimide bridging two Cys S atoms as vinyl thioethers; mli(NODAGA-Ttd) = mli with NODAGA attached to the maleimide nitrogen via a Ttd linker; mli(N4Ac-Ttd) = mli with N4Ac attached to the maleimide nitrogen via a Ttd linker; mli(Me) = N-methyl maleimide cyclization element, CN1C(=O)C([*:1])=C([*:2])C1=O; N4Ac = 6-carboxy-1,4,8,11-tetraazaundecane, NCCNCC(CNCCN)C(=O)*; DOTA = O=C(O)CN1CCN(CC(=O)O)CCN(CC(=O)*)CCN(CC(=O)O)CC1; NODAGA = O=C(O)CN1CCN(CC(=O)O)CCN(C(CCC(=O)*)C(=O)O)CC1; O2Oc = 3,6-dioxaoctanoic acid; Nle = CCCC[C@H](N)C(=O)O; Hexanoyl = CCCCCC(=O)*

Experiments:
[1] = target: Recombinant human FAP (R&D systems, #3715-SE) (human, UniProt Q12884 26-760); experiment: cell-based or functional assay
[2] = target: T1, fibroblast activation protein (FAP) on FAP-expressing human WI-38 fibroblasts (human, UniProt Q12884 1-760); experiment: competitive FACS on WI-38 cells vs 3 nM Cy5-labeled probe; A = pIC50 >7.0
T1 construct: Endogenous FAP on WI-38 cells (ECACC) in the FACS assay; also called human FAP
Description: FAP-expressing human WI-38 fibroblasts (ECACC) were cultured in EMEM including 15% fetal bovine serum, 2 mM L-Glutamine and 1% Non-essential amino acids. Cells were detached with Accutase (Biolegend, #BLD-423201) and washed in FACS buffer (PBS including 1% FBS). Cells were diluted in FACS buffer to a final concentration of 100.000 cells per ml and 200 μl of the cell suspension are transferred to a u-shaped non-binding 96-well plate (Greiner). […] Cell were washed twice with FACS buffer and resuspended in 200 μl FACS buffer. Cells were analyzed in an Attune NxT flow cytometer. Median fluorescence intensities (Cy5 channel) was calculated by Attune NxT software and plotted against peptide concentrations. Four parameter logistic (4PL) curve fitting and pIC50 calculations were performed using ActivityBase software.

| pIC50 Category (Activity), FRET-based FAP protease activity assay [1] | pIC50 Category (FACS) [2] | Binder |
| --- | --- | --- |
| > 7 pIC50 | > 7 pIC50 | {DOTA-O2Oc}-[Nle]CPPTEFCDHFRD-NH2 (disulfide 2-8, By the running order it belongs to 1005) [compound DOTA-O2Oc-Nle-[Cys-Pro-Pro-Thr-Glu-Phe-Cys]-Asp-His-Phe-Arg-Asp-NH2 (1005)] |
| > 7 pIC50 | > 7 pIC50 | Hexanoyl-CPPTQFCD-NH2 (linker 1-7 via mli(N4Ac-Ttd)) [compound Hex-[Cys(mli(N4Ac-Ttd))-Pro-Pro-Thr-Gln-Phe-Cys]-Asp-NH2 (2026)] |
| > 7 pIC50 | > 7 pIC50 | Hexanoyl-CPPTQFCD-NH2 (linker 1-7 via mli(DOTA-Ttd)) [compound Hex-[Cys(mli(DOTA-Ttd))-Pro-Pro-Thr-Gln-Phe-Cys]-Asp-NH2 (2017)] |
| > 7 pIC50 | > 7 pIC50 | {DOTA-Ttds}-[Nle]CPPTQFCD-NH2 (linker 2-8 via mli(Me)″) [compound DOTA-Ttds-Nle-[Cys(mli(Me))-Pro-Pro-Thr-Gln-Phe-Cys]-Asp-NH2 (2016)] |
| > 7 pIC50 | > 7 pIC50 | Hexanoyl-CPPTQFCDK(DOTA)-NH2 (linker 1-7 via mli(Me); SMILES CCCCCC(=O)N[C@H]1CSC2=C(SC[C@@H](C(=O)N[C@@H](CC(=O)O)C(=O)N[C@@H](CCCCNC(=O)CN3CCN(CC(=O)O)CCN(CC(=O)O)CCN(CC(=O)O)CC3)C(N)=O)NC(=O)[C@H](Cc3ccccc3)NC(=O)[C@H](CCC(N)=O)NC(=O)[C@H]([C@@H](C)O)NC(=O)[C@@H]3CCCN3C(=O)[C@@H]3CCCN3C1=O)C(=O)N(C)C2=O) [compound Hex-[Cys(mli(Me))-Pro-Pro-Thr-Gln-Phe-Cys]-Asp-Lys(DOTA)-NH2 (2015)] |
| > 7 pIC50 | > 7 pIC50 | Hexanoyl-CPPTQFCD-NH2 (linker 1-7 via mli(NODAGA-Ttd)) [compound Hex-[Cys(mli(NODAGA-Ttd))-Pro-Pro-Thr-Gln-Phe-Cys]-Asp-NH2 (2025)] |
| > 7 pIC50 | > 7 pIC50 | {DOTA-Ttds}-[Nle]CPPTQFCD-NH2 (disulfide 2-8) [compound DOTA-Ttds-Nle-[Cys-Pro-Pro-Thr-Gln-Phe-Cys]-Asp-NH2 (1008)] |
| > 7 pIC50 | > 7 pIC50 | Hexanoyl-CPPTQFCD-NH2 (linker 1-7 via mli(DOTA-Eda)) [compound Hex-[Cys(mli(DOTA-Eda))-Pro-Pro-Thr-Gln-Phe-Cys]-Asp-NH2 (2018)] |
| > 7 pIC50 | > 7 pIC50 | Hexanoyl-CPPTQFCDK(NODAGA)-NH2 (linker 1-7 via mli) [compound Hex-[Cys(mli)-Pro-Pro-Thr-Gln-Phe-Cys]-Asp-Lys(NODAGA)-NH2 (2023)] |
| > 7 pIC50 | > 7 pIC50 | Hexanoyl-CPPTQFCDK(N4Ac)-NH2 (linker 1-7 via mli) [compound Hex-[Cys(mli)-Pro-Pro-Thr-Gln-Phe-Cys]-Asp-Lys(N4Ac)-NH2 (2024)] |
| > 7 pIC50 | > 7 pIC50 | {DOTA-Ttds}-[Nle]CPPTEFCDHFRD-NH2 (disulfide 2-8, By the running order it belongs to 1006) [compound DOTA-Ttds-Nle-[Cys-Pro-Pro-Thr-Glu-Phe-Cys]-Asp-His-Phe-Arg-Asp-NH2 (1006)] |
